Test results: US20020160516A1, “Episomal expression vector for human gene therapy and expression system for production of proteins” (priority 1993, published 2002)
≈ marks a conversion by molar mass, not a printed value.

B1: SV-T: wild-type SV40 large T antigen (protein, UniProt P03070 1-708, looked up)
Large T antigen: MDKVLNREESLQLMDLLGLERSAWGNIPLMRKAYLKKCKEFHPDKGGDEEKMKKMNTLYKKMEDGVKYAHQPDFGGFWDATEIPTYGTDEWEQWWNAFNEENLFCSEEMPSSDDEATADSQHSTPPKKKRKVEDPKDFPSELLSFLSHAVFSNRTLACFAIYTTKEKAALLYKKIMEKYSVTFISRHNSYNHNILFFLTPHRHRVSAINNYAQKLCTFSFLICKGVNKEYLMYSALTRDPFSVIEESLPGGLKEHDFNPEEAEETKQVSWKLVTEYAMETKCDDVLLLLGMYLEFQYSFEMCLKCIKKEQPSHYKYHEKHYANAAIFADSKNQKTICQQAVDTVLAKKRVDSLQLTREQMLTNRFNDLLDRMDIMFGSTGSADIEEWMAGVAWLHCLLPKMDSVVYDFLKCMVYNIPKKRYWLFKGPIDSGKTTLAAALLELCGGKALNVNLPLDRLNFELGVAIDQFLVVFEDVKGTGGESRDLPSGQGINNLDNLRDYLDGSVKVNLEKKHLNKRTQIFPPGIVTMNEYSVPKTLQARFVKQIDFRPKDYLKHCLERSEFLLEKRIIQSGIALLLMLIWYRPVAEFAQSIQSRIVEWKERLDKEFSLSVYQKMKFNVAMGIGVLDWLRNSDDDDEDSQENADKNEDGGEKNMEDSGHETGIDSQSQGSFQAPQSSQSVHDHNQPYHICRGFTCFKKPPTPPPEPET

How the values were obtained:
[1] = tested on: 107/402-T expression in HT-1376 tet-off clone; test: Doxycycline control of 107/402-T expression in HT-1376 tet-off clone (Western blot); type: cell-based; details: Homo sapiens, 96 h, Western blot 4 days after exposure, read-out: half-maximal inhibitory concentration for 107/402-T expression
Source text: To prepare a human cell line in which expression of 107/402-T would be under control of doxycycline, HT-1376 human bladder carcinoma cells were sequentially transfected with three plasmid constructs: (a) pTET-OFF, which encodes the tetracycline-controlled transcriptional transactivator (tTA) under control of the CMV immediate-early promoter and the neomycin resistance gene under control of the SV40 early promoter, (b) pTRE.107/402-T, which encodes 107/402-T under control of the CMV minimal promoter and contains the tetracycline operon (binding site of tTA just upstream of the CMV minimal promoter), and (c) pCMVhygro, which encodes the hygromycin resistance gene under control of the CMV promoter. HT-1376 cells were first transfected with pTET-OFF, and neomycin resistant clones of stable transfectants were characterized by transiently transfecting clones with pTRE.luciferase in the presence or absence of doxycycline. Clones which yielded significant luciferase activity only in the absence of doxycycline (but no detectable luciferase activity in the presence of doxycycline) were then co-transfected with pTRE.107/402-T and pCMVhygro. Again, single cell clones of stable transfectants were screened for high basal levels of 107/402-T and complete turn-off of 107/402-T expression in the presence of doxycycline.
Steady-state levels of 107/402-T are achieved by 3 days. […]

human RB = target: T1, human RB (Homo sapiens, UniProt P06400); type: binding
T1 sequence (P06400 1-928): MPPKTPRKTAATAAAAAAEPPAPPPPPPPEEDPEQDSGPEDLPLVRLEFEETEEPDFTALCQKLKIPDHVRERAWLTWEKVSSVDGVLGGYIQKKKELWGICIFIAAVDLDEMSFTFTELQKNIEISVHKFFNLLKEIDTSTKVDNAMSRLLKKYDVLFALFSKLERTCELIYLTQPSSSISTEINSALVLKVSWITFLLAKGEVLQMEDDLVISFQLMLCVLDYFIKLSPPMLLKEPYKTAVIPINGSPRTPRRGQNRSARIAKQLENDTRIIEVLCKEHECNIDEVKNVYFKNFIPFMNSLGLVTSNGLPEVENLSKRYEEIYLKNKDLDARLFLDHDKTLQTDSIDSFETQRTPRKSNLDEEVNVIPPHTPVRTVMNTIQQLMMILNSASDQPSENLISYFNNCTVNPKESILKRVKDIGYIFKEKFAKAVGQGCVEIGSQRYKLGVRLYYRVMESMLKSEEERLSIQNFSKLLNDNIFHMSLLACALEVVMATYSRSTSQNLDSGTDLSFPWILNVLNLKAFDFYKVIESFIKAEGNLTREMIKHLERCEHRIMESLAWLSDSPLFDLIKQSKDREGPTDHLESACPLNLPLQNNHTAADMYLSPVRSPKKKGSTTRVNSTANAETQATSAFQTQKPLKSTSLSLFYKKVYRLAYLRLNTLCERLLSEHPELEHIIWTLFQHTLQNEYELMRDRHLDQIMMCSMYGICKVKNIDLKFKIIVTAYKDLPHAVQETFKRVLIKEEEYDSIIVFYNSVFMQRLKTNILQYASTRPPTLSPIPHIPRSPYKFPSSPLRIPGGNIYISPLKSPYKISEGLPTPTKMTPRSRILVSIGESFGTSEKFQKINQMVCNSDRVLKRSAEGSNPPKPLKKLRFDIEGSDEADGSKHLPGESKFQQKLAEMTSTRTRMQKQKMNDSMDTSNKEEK

p107 = target: T2, p107 (Homo sapiens, UniProt P28749); type: binding
T2 sequence (P28749 1-1068): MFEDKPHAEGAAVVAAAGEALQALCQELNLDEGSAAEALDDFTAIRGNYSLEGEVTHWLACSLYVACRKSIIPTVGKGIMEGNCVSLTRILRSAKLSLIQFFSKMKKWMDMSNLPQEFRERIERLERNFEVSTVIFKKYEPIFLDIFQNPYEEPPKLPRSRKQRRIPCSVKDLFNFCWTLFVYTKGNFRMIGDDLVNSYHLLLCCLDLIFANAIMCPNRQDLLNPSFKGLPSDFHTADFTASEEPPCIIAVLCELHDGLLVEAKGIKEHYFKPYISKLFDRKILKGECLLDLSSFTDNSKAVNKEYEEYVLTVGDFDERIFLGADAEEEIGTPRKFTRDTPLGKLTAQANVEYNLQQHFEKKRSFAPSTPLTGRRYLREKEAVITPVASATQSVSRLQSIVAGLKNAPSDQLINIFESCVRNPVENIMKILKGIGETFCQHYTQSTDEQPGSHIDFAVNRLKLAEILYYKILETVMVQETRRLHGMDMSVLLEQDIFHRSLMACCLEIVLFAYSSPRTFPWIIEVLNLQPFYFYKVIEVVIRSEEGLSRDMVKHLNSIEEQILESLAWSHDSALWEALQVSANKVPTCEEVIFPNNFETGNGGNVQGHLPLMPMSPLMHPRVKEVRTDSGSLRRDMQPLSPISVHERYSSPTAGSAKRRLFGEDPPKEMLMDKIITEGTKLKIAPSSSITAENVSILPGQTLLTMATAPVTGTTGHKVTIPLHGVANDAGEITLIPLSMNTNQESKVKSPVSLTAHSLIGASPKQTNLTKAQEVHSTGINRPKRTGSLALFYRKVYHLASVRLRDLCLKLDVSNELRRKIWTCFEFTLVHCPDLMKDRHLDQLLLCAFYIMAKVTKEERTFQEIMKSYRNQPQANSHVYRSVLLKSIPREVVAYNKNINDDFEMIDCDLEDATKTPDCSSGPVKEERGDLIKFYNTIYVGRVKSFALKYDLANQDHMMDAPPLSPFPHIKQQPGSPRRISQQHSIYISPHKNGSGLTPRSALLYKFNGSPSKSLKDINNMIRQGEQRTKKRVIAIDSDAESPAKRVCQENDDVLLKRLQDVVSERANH

p53 = p53 (Homo sapiens, UniProt P04637); type: binding
Chain of p53 (P04637 whole entry): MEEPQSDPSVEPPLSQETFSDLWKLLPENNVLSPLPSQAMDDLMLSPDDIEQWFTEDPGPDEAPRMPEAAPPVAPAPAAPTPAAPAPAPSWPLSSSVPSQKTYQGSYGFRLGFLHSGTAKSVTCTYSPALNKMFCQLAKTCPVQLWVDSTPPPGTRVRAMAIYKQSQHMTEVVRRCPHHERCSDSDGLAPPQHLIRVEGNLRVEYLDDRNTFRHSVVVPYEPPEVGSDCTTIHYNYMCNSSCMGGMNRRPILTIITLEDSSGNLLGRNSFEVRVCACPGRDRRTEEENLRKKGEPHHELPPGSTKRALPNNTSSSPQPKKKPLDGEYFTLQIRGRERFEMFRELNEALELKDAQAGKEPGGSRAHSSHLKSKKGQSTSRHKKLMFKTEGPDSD

T24 cell line = test: Soft agar cloning of T24 clones expressing T antigens; details: T24 single cell clones expressing T antigen (SV-T clone A7, 402-T clone G1); ± se
Source text: Transformed cells were trypsinized and then passed through a 30-micron nylon filter (Tetko, Lancaster, N.Y.) to achieve a single cell suspension. The bottom layer of agar consisted of low glucose DMEM supplemented with 10% fetal calf serum and 0.6% Seaplaque agarose (FMC BioProducts, Rockland, Me.). The top layer contained serial dilutions of cells ranging between 10^3 and 10^6 in low-glucose DMEM supplemented with 10% fetal calf serum and 0.3% Seaplaque agarose.

Row | Molecule | IC50 [1] [ng/mL] | Observed signal compared to T, binding to RB (human RB) [%] | Observed signal compared to T, binding to p107 (p107) [%] | Observed signal compared to T, binding to p53 (p53) [%] | soft agar cloning efficiency (T24 cell line)
1 | C[C@H]1c2cccc(O)c2C(=O)C2=C(O)[C@]3(O)C(=O)C(C(N)=O)=C(O)[C@@H](N(C)C)[C@@H]3[C@@H](O)[C@@H]21 [doxycycline] | ~0.01 (≈ 0.0225 nM) |  |  |  | 
2 | B1 |  | 100 | 100 | 100 | 0.10%±0.02%
